# Data from article PMC3978581.
# Tests used:
# [1] = biological target: Human prolactin receptor, endogenous on human breast cancer cell lines (human (endogenous in T47D, SKBR3, MDA-MB-468, MCF-7, BT474)) (UniProt P16471)
# [2] = biological target: Human prolactin receptor, endogenous on human breast cancer cell lines (human (endogenous in T47D, SKBR3, MDA-MB-468, MCF-7, BT474)) (UniProt P16471); remark: listed apart in the source
# UniProt P16471, sequence (P16471 25-622, stated change not applied): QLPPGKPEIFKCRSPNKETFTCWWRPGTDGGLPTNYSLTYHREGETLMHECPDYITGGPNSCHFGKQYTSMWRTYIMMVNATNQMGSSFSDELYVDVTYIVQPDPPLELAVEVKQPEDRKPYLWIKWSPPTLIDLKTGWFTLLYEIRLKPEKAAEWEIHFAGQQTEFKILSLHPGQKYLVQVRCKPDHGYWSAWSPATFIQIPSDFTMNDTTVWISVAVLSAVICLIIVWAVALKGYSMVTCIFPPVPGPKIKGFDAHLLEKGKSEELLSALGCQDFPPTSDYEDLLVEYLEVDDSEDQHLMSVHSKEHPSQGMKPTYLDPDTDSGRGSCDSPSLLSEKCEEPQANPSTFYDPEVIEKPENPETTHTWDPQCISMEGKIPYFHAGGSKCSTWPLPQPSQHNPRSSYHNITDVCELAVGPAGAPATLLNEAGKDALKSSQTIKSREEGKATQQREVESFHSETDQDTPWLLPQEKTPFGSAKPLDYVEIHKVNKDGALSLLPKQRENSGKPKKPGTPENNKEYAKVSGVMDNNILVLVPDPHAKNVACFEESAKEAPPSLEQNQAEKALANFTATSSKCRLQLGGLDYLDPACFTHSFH
substance,measurement,setting,value
Recombinant human prolactin (from UniProt P01236 29-227) (ligand),"EC50 of prolactin (1 to 100 nM, 15 min) for Stat5 tyrosine phosphorylation in SKBR3 cells at pHe 6.8",[1],119 nM
same,"EC50 of prolactin (1 to 100 nM, 15 min) for Stat5 tyrosine phosphorylation in SKBR3 cells at pHe 7.4",[1],3.3 nM
same,"EC50 of prolactin (1 to 100 nM, 15 min) for Stat5 tyrosine phosphorylation in T47D cells at pHe 6.8",[1],37.8 nM
same,"EC50 of prolactin (1 to 100 nM, 15 min) for Stat5 tyrosine phosphorylation in T47D cells at pHe 7.4",[1],3.7 nM
same,loss of prolactin-stimulated Stat5 and Erk phosphorylation in T47D and SKBR3 cells over pHe 7.4 to 6.6; percent diminished at pHe 6.8 against pHe 7.4,[2],> 80%
